B1: CYFP1_HUMAN (protein, UniProt Q7L576 1-1253, looked up)
Cytoplasmic FMR1-interacting …: MAAQVTLEDALSNVDLLEELPLPDQQPCIEPPPSSLLYQPNFNTNFEDRNAFVTGIARYIEQATVHSSMNEMLEEGQEYAVMLYTWRSCSRAIPQVKCNEQPNRVEIYEKTVEVLEPEVTKLMNFMYFQRNAIERFCGEVRRLCHAERRKDFVSEAYLITLGKFINMFAVLDELKNMKCSVKNDHSAYKRAAQFLRKMADPQSIQESQNLSMFLANHNKITQSLQQQLEVISGYEELLADIVNLCVDYYENRMYLTPSEKHMLLKVMGFGLYLMDGSVSNIYKLDAKKRINLSKIDKYFKQLQVVPLFGDMQIELARYIKTSAHYEENKSRWTCTSSGSSPQYNICEQMIQIREDHMRFISELARYSNSEVVTGSGRQEAQKTDAEYRKLFDLALQGLQLLSQWSAHVMEVYSWKLVHPTDKYSNKDCPDSAEEYERATRYNYTSEEKFALVEVIAMIKGLQVLMGRMESVFNHAIRHTVYAALQDFSQVTLREPLRQAIKKKKNVIQSVLQAIRKTVCDWETGHEPFNDPALRGEKDPKSGFDIKVPRRAVGPSSTQLYMVRTMLESLIADKSGSKKTLRSSLEGPTILDIEKFHRESFFYTHLINFSETLQQCCDLSQLWFREFFLELTMGRRIQFPIEMSMPWILTDHILETKEASMMEYVLYSLDLYNDSAHYALTRFNKQFLYDEIEAEVNLCFDQFVYKLADQIFAYYKVMAGSLLLDKRLRSECKNQGATIHLPPSNRYETLLKQRHVQLLGRSIDLNRLITQRVSAAMYKSLELAIGRFESEDLTSIVELDGLLEINRMTHKLLSRYLTLDGFDAMFREANHNVSAPYGRITLHVFWELNYDFLPNYCYNGSTNRFVRTVLPFSQEFQRDKQPNAQPQYLHGSKALNLAYSSIYGSYRNFVGPPHFQVICRLLGYQGIAVVMEELLKVVKSLLQGTILQYVKTLMEVMPKICRLPRHEYGSPGILEFFHHQLKDIVEYAELKTVCFQNLREVGNAILFCLLIEQSLSLEEVCDLLHAAPFQNILPRVHVKEGERLDAKMKRLESKYAPLHLVPLIERLGTPQQIAIAREGDLLTKERLCCGLSMFEVILTRIRSFLDDPIWRGPLPSNGVMHVDECVEFHRLWSAMQFVYCIPVGTHEFTVEQCFGDGLHWAGCMIIVLLGQQRRFAVLDFCYHLLKVQKHDGKDEIIKNVPLKKMVERIRKFQILNDEIITILDKYLKSGDGEGTPVEHVRCFQPPIHQSLASS
B2: PR40A_HUMAN (protein, UniProt O75400 1-957, looked up)
Pre-mRNA-processing factor 40 …: MRPGTGAERGGLMVSEMESHPPSQGPGDGERRLSGSSLCSGSWVSADGFLRRRPSMGHPGMHYAPMGMHPMGQRANMPPVPHGMMPQMMPPMGGPPMGQMPGMMSSVMPGMMMSHMSQASMQPALPPGVNSMDVAAGTASGAKSMWTEHKSPDGRTYYYNTETKQSTWEKPDDLKTPAEQLLSKCPWKEYKSDSGKPYYYNSQTKESRWAKPKELEDLEGYQNTIVAGSLITKSNLHAMIKAEESSKQEECTTTSTAPVPTTEIPTTMSTMAAAEAAAAVVAAAAAAAAAAAAANANASTSASNTVSGTVPVVPEPEVTSIVATVVDNENTVTISTEEQAQLTSTPAIQDQSVEVSSNTGEETSKQETVADFTPKKEEEESQPAKKTYTWNTKEEAKQAFKELLKEKRVPSNASWEQAMKMIINDPRYSALAKLSEKKQAFNAYKVQTEKEEKEEARSKYKEAKESFQRFLENHEKMTSTTRYKKAEQMFGEMEVWNAISERDRLEIYEDVLFFLSKKEKEQAKQLRKRNWEALKNILDNMANVTYSTTWSEAQQYLMDNPTFAEDEELQNMDKEDALICFEEHIRALEKEEEEEKQKSLLRERRRQRKNRESFQIFLDELHEHGQLHSMSSWMELYPTISSDIRFTNMLGQPGSTALDLFKFYVEDLKARYHDEKKIIKDILKDKGFVVEVNTTFEDFVAIISSTKRSTTLDAGNIKLAFNSLLEKAEAREREREKEEARKMKRKESAFKSMLKQAAPPIELDAVWEDIRERFVKEPAFEDITLESERKRIFKDFMHVLEHECQHHHSKNKKHSKKSKKHHRKRSRSRSGSDSDDDDSHSKKKRQRSESRSASEHSSSAESERSYKKSKKHKKKSKKRRHKSDSPESDAEREKDKKEKDRESEKDRTRQRSESKHKSPKKKTGKDSGNWDTSGSELSEGELEKRRRTLLEQLDDDQ
B3: SRRT_HUMAN (protein, UniProt Q9BXP5 2-876, looked up)
Serrate RNA effector molecule …: GDSDDEYDRRRRDKFRRERSDYDRSRERDERRRGDDWNDREWDRGRERRSRGEYRDYDRNRRERFSPPRHELSPPQKRMRRDWDEHSSDPYHSGYEMPYAGGGGGPTYGPPQPWGHPDVHIMQHHVLPIQARLGSIAEIDLGVPPPVMKTFKEFLLSLDDSVDETEAVKRYNDYKLDFRRQQMQDFFLAHKDEEWFRSKYHPDEVGKRRQEARGALQNRLRVFLSLMETGWFDNLLLDIDKADAIVKMLDAAVIKMEGGTENDLRILEQEEEEEQAGKPGEPSKKEEGRAGAGLGDGERKTNDKDEKKEDGKQAENDSSNDDKTKKSEGDGDKEEKKEDSEKEAKKSSKKRNRKHSGDDSFDEGSVSESESESESGQAEEEKEEAEEALKEKEKPKEEEWEKPKDAAGLECKPRPLHKTCSLFMRNIAPNISRAEIISLCKRYPGFMRVALSEPQPERRFFRRGWVTFDRSVNIKEICWNLQNIRLRECELSPGVNRDLTRRVRNINGITQHKQIVRNDIKLAAKLIHTLDDRTQLWASEPGTPPLPTSLPSQNPILKNITDYLIEEVSAEEEELLGSSGGAPPEEPPKEGNPAEINVERDEKLIKVLDKLLLYLRIVHSLDYYNTCEYPNEDEMPNRCGIIHVRGPMPPNRISHGEVLEWQKTFEEKLTPLLSVRESLSEEEAQKMGRKDPEQEVEKFVTSNTQELGKDKWLCPLSGKKFKGPEFVRKHIFNKHAEKIEEVKKEVAFFNNFLTDAKRPALPEIKPAQPPGPAQILPPGLTPGLPYPHQTPQGLMPYGQPRPPILGYGAGAVRPAVPTGGPPYPHAPYGAGRGNYDAFRGQGGYPGKPRNRMVRGDPRAIVEYRDLDAPDDVDFF
B4: ROCK1_HUMAN (protein, UniProt Q13464 2-1354, looked up)
Rho-associated protein kinase …: STGDSFETRFEKMDNLLRDPKSEVNSDCLLDGLDALVYDLDFPALRKNKNIDNFLSRYKDTINKIRDLRMKAEDYEVVKVIGRGAFGEVQLVRHKSTRKVYAMKLLSKFEMIKRSDSAFFWEERDIMAFANSPWVVQLFYAFQDDRYLYMVMEYMPGGDLVNLMSNYDVPEKWARFYTAEVVLALDAIHSMGFIHRDVKPDNMLLDKSGHLKLADFGTCMKMNKEGMVRCDTAVGTPDYISPEVLKSQGGDGYYGRECDWWSVGVFLYEMLVGDTPFYADSLVGTYSKIMNHKNSLTFPDDNDISKEAKNLICAFLTDREVRLGRNGVEEIKRHLFFKNDQWAWETLRDTVAPVVPDLSSDIDTSNFDDLEEDKGEEETFPIPKAFVGNQLPFVGFTYYSNRRYLSSANPNDNRTSSNADKSLQESLQKTIYKLEEQLHNEMQLKDEMEQKCRTSNIKLDKIMKELDEEGNQRRNLESTVSQIEKEKMLLQHRINEYQRKAEQENEKRRNVENEVSTLKDQLEDLKKVSQNSQLANEKLSQLQKQLEEANDLLRTESDTAVRLRKSHTEMSKSISQLESLNRELQERNRILENSKSQTDKDYYQLQAILEAERRDRGHDSEMIGDLQARITSLQEEVKHLKHNLEKVEGERKEAQDMLNHSEKEKNNLEIDLNYKLKSLQQRLEQEVNEHKVTKARLTDKHQSIEEAKSVAMCEMEKKLKEEREAREKAENRVVQIEKQCSMLDVDLKQSQQKLEHLTGNKERMEDEVKNLTLQLEQESNKRLLLQNELKTQAFEADNLKGLEKQMKQEINTLLEAKRLLEFELAQLTKQYRGNEGQMRELQDQLEAEQYFSTLYKTQVKELKEEIEEKNRENLKKIQELQNEKETLATQLDLAETKAESEQLARGLLEEQYFELTQESKKAASRNRQEITDKDHTVSRLEEANSMLTKDIEILRRENEELTEKMKKAEEEYKLEKEEEISNLKAAFEKNINTERTLKTQAVNKLAEIMNRKDFKIDRKKANTQDLRKKEKENRKLQLELNQEREKFNQMVVKHQKELNDMQAQLVEECAHRNELQMQLASKESDIEQLRAKLLDLSDSTSVASFPSADETDGNLPESRIEGWLSVPNRGNIKRYGWKKQYVVVSSKKILFYNDEQDKEQSNPSMVLDIDKLFHVRPVTQGDVYRAETEEIPKIFQILYANEGECRKDVEMEPVQQAEKTNFQNHKGHEFIPTLYHFPANCDACAKPLWHVFKPPPALECRRCHVKCHRDHLDKKEDLICPCKVSYDVTSARDMLLLACSQDEQKKWVTHLVKKIPKNPPSGFVRASPRTLSTRSTANQSFRKVVKNTSGKTS

Test system: KDM4A-I71AzF
Assay: CASI: photo-crosslinking with HEK293T cell extracts, StrepTactin enrichment and LC-MS/MS proteomics;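 note: lysates from HEK293T cells pretreated with a KDM4 inhibitor to raise proteome methylation, affinity-purified after ±UV, gel-resolved, trypsin-digested, with exclusive unique peptides per protein averaged per condition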
Type: binding, human
Conditions: sheet "Final results but with 0.01"

| Molecule | Fold change (+UV/-UV) |
| --- | --- |
| B1 | 0.6 |
| B2 | 0.5 |
| B3 | 0.5385 |
| B4 | 0 |

From paper PMC10540216, “Activity Guided Azide-methyllysine Photo-trapping for Substrate Profiling of Lysine Demethylases” (Journal of the American Chemical Society, 2023)
